Like-named read-outs stand apart in the source and are kept apart here. Blank lines part the entries; values can stand above or below the molecule they belong to.
How the values were obtained:
Human VEGFA165 [1] = biological target: T1, Human VEGFA165 (human, UniProt P15692-4 27-191); test: cell-based or functional assay
Human VEGFA165 [2] = biological target: T1, Human VEGFA165; test: SPR Biacore 8K, VEGFA165 amine-coupled on CM5, nanobody as analyte, 1:1 model
Human VEGFA165 [3] = biological target: T1, Human VEGFA165; test: competition ELISA on coated VEGFA, competitor VEGFR2-ECD-Fc 1 nM
Human VEGFA165 [4] = biological target: T1, Human VEGFA165; test: competition ELISA on coated VEGFA, competitor VEGFR2-ECD-Fc 2 nM
Human VEGFA165 [5] = biological target: T1, Human VEGFA165; test: SPR, VEGFA165 on CM5
Human VEGFA165 [6] = biological target: T1, Human VEGFA165; test: SPR Biacore 8K, VEGFA165 amine-coupled on CM5, nanobody as analyte, 1:1 model; remark: listed apart in the source
[7] = biological target: 3% milk powder (negative control); test: phage ELISA, 3% milk powder coated (negative control), anti-M13(HRP)
Human VEGFA165 [8] = biological target: T1, Human VEGFA165; test: competition ELISA on coated VEGFA, competitor VEGFR2-ECD-Fc 1 nM; remark: listed apart in the source
Human VEGFA165 [9] = biological target: T1, Human VEGFA165; test: ELISA, VEGFA coated 0.3 µg/mL, anti-His detection
Human VEGFA165 [10] = biological target: T1, Human VEGFA165; test: phage ELISA, VEGFA coated 0.5 µg/mL, anti-M13(HRP)

T1 sequence (P15692 other isoform, or with tags, fused parts or gaps limits assumed): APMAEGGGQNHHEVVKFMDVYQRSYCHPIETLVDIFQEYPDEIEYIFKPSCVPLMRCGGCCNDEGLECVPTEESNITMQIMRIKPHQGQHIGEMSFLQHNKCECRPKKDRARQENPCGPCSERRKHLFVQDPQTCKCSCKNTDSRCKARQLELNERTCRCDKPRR

Maximum inhibition rate (%) of HUVEC proliferation (Human VEGFA165 [1]): 0%
Molecule: negative control antibody (nanobody binding to an irrelevant antigen) (VHH)

Kd (Human VEGFA165 [2]): 0.243 nM
koff (Human VEGFA165 [2]): 8.24e-05 s⁻¹
kon (Human VEGFA165 [2]): 339000 M⁻¹ s⁻¹
B1: V1-2m (VHH)
VHH: EVQLVESGGGLVQPGGSLRLSCAASGRTFSSYTMGWFRQAPGKEREFVVAISKGGYKYDSVSLEARFTISRDNSKNTVYLQMNSLRPEDTAVYYCAATRAYGSSRLRLADTYEYWGQGTLVTVSS
notes: Humanized V1

IC50 (Human VEGFA165 [3]): 5.62 nM
Maximum inhibition rate (%) (Human VEGFA165 [3]): 95.5%
B2: V43-1H-78 (VHH)
VHH: EVQLVESGGGLVQPGGSLRLSCAASGRTFSSYTMGWFRQAPGKEREFVVAISKGGYKYDSVSLEARFTISRDNSKNTVYLQMNSLRAEDTAVYYCAATRAYGSSRLRLANTYEYWGQGTLVTVSS
notes: Humanized V43

IC50 (Human VEGFA165 [3]): 8.63 nM
Maximum inhibition rate (%) (Human VEGFA165 [3]): 93.4%
B3: V43-3H-78 (VHH)
VHH: EVQLVESGGGLVQPGGSLRLSCAASGRTFTSYTMGWFRQAPGKEREFVVAISKGGYKYDSVSLEARFTISRDNSKNTVYLQMNSLRAEDTAVYYCAGTRAYGSSRLRLANTYEYWGQGTLVTVSS
notes: Humanized V43

IC50 (Human VEGFA165 [4]): 26.8 nM
Maximum inhibition rate (%) (Human VEGFA165 [4]): 89.2%
B4: V13-4m (VHH)
VHH: EVQLVESGGGLVQPGGSLRLSCAASGRTFTSYTMGWFRQAPGKEREFVVAISKGGYKYDAVSLEARFTISRDNAKNTVYLQMNSLRPEDTAVYYCAGTRAYGSSRLRLADTYEYWGQGTLVTVSS
notes: Humanized V13

IC50 (Human VEGFA165 [3]): 7.15 nM
Maximum inhibition rate (%) (Human VEGFA165 [3]): 91.6%
B5: V43-3H-87 (VHH)
VHH: EVQLVESGGGLVQPGGSLRLSCAASGRTFTSYTMGWFRQAPGKEREFVVAISKGGYKYDSVSLEARFTISRDNSKNTLYLQMNSLRPEDTAVYYCAGTRAYGSSRLRLANTYEYWGQGTLVTVSS
notes: Humanized V43

IC50 (Human VEGFA165 [3]): 5.64 nM
Maximum inhibition rate (%) (Human VEGFA165 [3]): 94.7%
B6: V30-2H-2m (VHH)
VHH: EVQLVESGGGLVQPGGSLRLSCAASGRTFSSYTMGWFRQAPGKEREFVVAISKGGYKYDAVSLEARFTISRDNSKNTVYLQMNSLRPEDTAVYYCAATRAYGSSRLRLAKTYEYWGQGTLVTVSS
notes: Humanized V30

IC50 (Human VEGFA165 [4]): 20 nM
Maximum inhibition rate (%) (Human VEGFA165 [4]): 94.4%
B7: V1-com-74-78-97 (VHH)
VHH: EVQLVESGGGLVQPGGSLRLSCAASGRTFSSYTMGWFRQAPGKEREFVVAISKGGYKYDSVSLEARFTISRDNAKNTVYLQMNSLRAEDTAVYYCASTRAYGSSRLRLADTYEYWGQGTLVTVSS
notes: Humanized V1

fold difference of KD from the positive control BI-VEGF ab (Human VEGFA165 [5]): < 3 fold
Kd (Human VEGFA165 [6]): 0.522 nM
koff (Human VEGFA165 [6]): 0.000168 s⁻¹
kon (Human VEGFA165 [6]): 323000 M⁻¹ s⁻¹
OD450 [7]: 0.0489 OD450
IC50 (Human VEGFA165 [8]): 3.91 nM
Maximum inhibition rate (%) (Human VEGFA165 [8]): 96.3%
EC50 (Human VEGFA165 [9]): 0.64 nM
OD450 (Human VEGFA165 [10]): 2.53 OD450
B8: V33 (VHH)
VHH: QLQLVESGGGSVQPGGSLRLSCEVSGRTFSSYTMGWFRQAPGKEREFVVAISKGGYKYDSVSLEARFTISKDNTKNTVYLQMNSLKPEDTAVYYCAATRAYGSSRLRLAKTYEYWGQGTQVTVSS
notes: Purified with C-terminal GGGGS-6×His

fold difference of KD from the positive control BI-VEGF ab (Human VEGFA165 [5]): < 3 fold
Kd (Human VEGFA165 [6]): 0.436 nM
koff (Human VEGFA165 [6]): 0.000127 s⁻¹
kon (Human VEGFA165 [6]): 291000 M⁻¹ s⁻¹
OD450 [7]: 0.0553 OD450
IC50 (Human VEGFA165 [8]): 2.98 nM
Maximum inhibition rate (%) (Human VEGFA165 [8]): 95.3%
EC50 (Human VEGFA165 [9]): 0.77 nM
OD450 (Human VEGFA165 [10]): 2.69 OD450
B9: V29 (VHH)
VHH: QLQLVESGGGSVQPGGSLRLSCEVSGRTFSSYTMGWFRQAPGKEREFVVAISKGGYKYDSVSLEARFTISKDNTKNTVYLQMNSLKPEDTAVYYCAGTRAYGSSRLRLANTYEYWGQGTQVTVSS
notes: as for B8

IC50 (Human VEGFA165 [4]): 35.5 nM
Maximum inhibition rate (%) (Human VEGFA165 [4]): 89.3%
B10: V43-4m (VHH)
VHH: EVQLVESGGGLVQPGGSLRLSCAASGRTFTSYTMGWFRQAPGKEREFVVAISKGGYKYDSVSLEARFTISRDNAKNTVYLQMNSLRPEDTAVYYCAGTRAYGSSRLRLANTYEYWGQGTLVTVSS
notes: Humanized V43

fold difference of KD from the positive control BI-VEGF ab (Human VEGFA165 [5]): < 3 fold
Kd (Human VEGFA165 [6]): 0.482 nM
koff (Human VEGFA165 [6]): 0.00016 s⁻¹
kon (Human VEGFA165 [6]): 331000 M⁻¹ s⁻¹
OD450 [7]: 0.0359 OD450
EC50 (Human VEGFA165 [9]): 0.57 nM
OD450 (Human VEGFA165 [10]): 2.77 OD450
B11: V41 (VHH)
VHH: QLQLVESGGGSVQPGGSLRLSCEVSGRTFSSYTMGWFRQAPGKEREFVVAISKGGYKYDSVSLEARFTISKDNTKNTVYLQMNSLKPEDTAVYYCAGTRAYGSSRLRLAKTYEYWGQGTQVTVSS
notes: as for B8

IC50 (Human VEGFA165 [3]): 4.97 nM
Maximum inhibition rate (%) (Human VEGFA165 [3]): 95.5%
B12: V30-2H-78 (VHH)
VHH: EVQLVESGGGLVQPGGSLRLSCAASGRTFSSYTMGWFRQAPGKEREFVVAISKGGYKYDAVSLEARFTISRDNSKNTVYLQMNSLRAEDTAVYYCAATRAYGSSRLRLAKTYEYWGQGTLVTVSS
notes: Humanized V30

IC50 (Human VEGFA165 [4]): 26.7 nM
Maximum inhibition rate (%) (Human VEGFA165 [4]): 93.5%
B13: V1-SA3 (VHH)
VHH: EVQLVESGGGLVQPGGSLRLSCAASGRTFSSYTMGWFRQAPGKEREFVVAISKGGYKYDSVSLEARFTISRDNAKNTVYLQMNSLRAEDTAVYYCAATRAYGSSRLRLADTYEYWGQGTLVTVSS
notes: Humanized V1

fold difference of KD from the positive control BI-VEGF ab (Human VEGFA165 [5]): < 3 fold
Kd (Human VEGFA165 [6]): 0.193 nM
koff (Human VEGFA165 [6]): 8.09e-05 s⁻¹
kon (Human VEGFA165 [6]): 418000 M⁻¹ s⁻¹
OD450 [7]: 0.0519 OD450
IC50 (Human VEGFA165 [8]): 6 nM
Maximum inhibition rate (%) (Human VEGFA165 [8]): 93.7%
EC50 (Human VEGFA165 [9]): 0.53 nM
OD450 (Human VEGFA165 [10]): 2.5 OD450
B14: V43 (VHH)
VHH: QLQLVESGGGSVQPGGSLRLSCEVSGRTFTSYTMGWFRQAPGKEREFVVAISKGGYKYDSVSLEARFTISKDNTKNTVYLQMNSLKPEDTAVYYCAGTRAYGSSRLRLANTYEYWGQGTQVTVSS
notes: as for B8

IC50 (Human VEGFA165 [3]): 5.81 nM
Maximum inhibition rate (%) (Human VEGFA165 [3]): 94.2%
B15: V30-2H-87 (VHH)
VHH: EVQLVESGGGLVQPGGSLRLSCAASGRTFSSYTMGWFRQAPGKEREFVVAISKGGYKYDAVSLEARFTISRDNSKNTLYLQMNSLRPEDTAVYYCAATRAYGSSRLRLAKTYEYWGQGTLVTVSS
notes: Humanized V30

Kd (Human VEGFA165 [2]): 0.257 nM
koff (Human VEGFA165 [2]): 8.91e-05 s⁻¹
kon (Human VEGFA165 [2]): 347000 M⁻¹ s⁻¹
IC50 (Human VEGFA165 [4]): 28.5 nM
Maximum inhibition rate (%) (Human VEGFA165 [4]): 93.7%
B16: V1-com-78 (VHH)
VHH: EVQLVESGGGLVQPGGSLRLSCAASGRTFSSYTMGWFRQAPGKEREFVVAISKGGYKYDSVSLEARFTISRDNSKNTVYLQMNSLRAEDTAVYYCAATRAYGSSRLRLADTYEYWGQGTLVTVSS
notes: Humanized V1

Kd (Human VEGFA165 [2]): 0.252 nM
koff (Human VEGFA165 [2]): 9.08e-05 s⁻¹
kon (Human VEGFA165 [2]): 360000 M⁻¹ s⁻¹
B17: V1-com-87 (VHH)
VHH: EVQLVESGGGLVQPGGSLRLSCAASGRTFSSYTMGWFRQAPGKEREFVVAISKGGYKYDSVSLEARFTISRDNSKNTLYLQMNSLRPEDTAVYYCAATRAYGSSRLRLADTYEYWGQGTLVTVSS
notes: Humanized V1

IC50 (Human VEGFA165 [3]): 5.99 nM
Maximum inhibition rate (%) (Human VEGFA165 [3]): 94.5%
B18: V43-1H-2m (VHH)
VHH: EVQLVESGGGLVQPGGSLRLSCAASGRTFSSYTMGWFRQAPGKEREFVVAISKGGYKYDSVSLEARFTISRDNSKNTVYLQMNSLRPEDTAVYYCAATRAYGSSRLRLANTYEYWGQGTLVTVSS
notes: Humanized V43

IC50 (Human VEGFA165 [4]): 40.1 nM
Maximum inhibition rate (%) (Human VEGFA165 [4]): 88.9%
B19: V13-2m (VHH)
VHH: EVQLVESGGGLVQPGGSLRLSCAASGRTFTSYTMGWFRQAPGKEREFVVAISKGGYKYDAVSLEARFTISRDNSKNTVYLQMNSLRPEDTAVYYCAGTRAYGSSRLRLADTYEYWGQGTLVTVSS
notes: Humanized V13 (CDR graft on humanized V1 frameworks)

IC50 (Human VEGFA165 [3]): 5.27 nM
Maximum inhibition rate (%) (Human VEGFA165 [3]): 95.4%
B20: V43-1H-87 (VHH)
VHH: EVQLVESGGGLVQPGGSLRLSCAASGRTFSSYTMGWFRQAPGKEREFVVAISKGGYKYDSVSLEARFTISRDNSKNTLYLQMNSLRPEDTAVYYCAATRAYGSSRLRLANTYEYWGQGTLVTVSS
notes: Humanized V43

IC50 (Human VEGFA165 [4]): 26.1 nM
Maximum inhibition rate (%) (Human VEGFA165 [4]): 93%
B21: V1-4m (VHH)
VHH: EVQLVESGGGLVQPGGSLRLSCAASGRTFSSYTMGWFRQAPGKEREFVVAISKGGYKYDSVSLEARFTISRDNAKNTVYLQMNSLRPEDTAVYYCASTRAYGSSRLRLADTYEYWGQGTLVTVSS
notes: Humanized V1

fold difference of KD from the positive control BI-VEGF ab (Human VEGFA165 [5]): < 3 fold
Kd (Human VEGFA165 [6]): 0.285 nM
koff (Human VEGFA165 [6]): 0.00012 s⁻¹
kon (Human VEGFA165 [6]): 419000 M⁻¹ s⁻¹
OD450 [7]: 0.0623 OD450
IC50 (Human VEGFA165 [8]): 4.72 nM
Maximum inhibition rate (%) (Human VEGFA165 [8]): 96.3%
EC50 (Human VEGFA165 [9]): 0.36 nM
OD450 (Human VEGFA165 [10]): 2.77 OD450
B22: V36 (VHH)
VHH: QLQLVESGGGSVQPGGSLRLSCEVSGRTFASYTMGWFRQAPGKEREFVVAISKGGYKYDSVSLEARFTISKDNTKNTVYLQMNSLKPEDTAVYYCAGTRAYGSSRLRLADTYEYWGQGTQVTVSS
notes: as for B8

From EP4582447A1 (Quaerite Biopharm Research (Beijing) Co., Ltd., dated 2025)
